In the nanobody polyreactivity screen of Harvey et al. (2022):

Assay: yeast display, Sf9 membrane polyspecificity reagent, FACS + sequencing; frameworks hold sequencing errors
Method in brief: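 Sorting gates, low and high (top ~1%), were placed on anti-HA fluorescence to track expression and on streptavidin fluorescence to track reagent binding. A clone's polyreactivity label is taken from the gate it came out of. The reagent was 10% biotinylated, detergent-solubilized Sf9 membrane, applied for 1 hour at 4 °C to galactose-induced yeast display cells.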

| Sequence | polyreactivity (PSR sort gate) |
| --- | --- |
| QVQLVESGGGLVQAGGSLRLSCAASGRILYRNAMGWYRQAPGKERELVAAITTRGTSTYYADSVKGRFTISRDNAKNTVYLQMNSLKPEDTAVYYCAADSWFSYRGPLYYWGQGTQVTVSS | high polyreactivity |
| QVQLVETGGGLVQAGGSLRLSCAASGTFHWYAMGWYRPAPGKERELVAAITGSGGNTYYADSVKGRFTISRDNAKNTVYLQMNSLKPEDTAVYYCAARIYTWSVQYTGYGYWGQGTQVTVSS | high polyreactivity |
| QVQLVESGGGLVQAGGSLRLSCAASGSTFTTYAMGWYRQAPGKEREFVASIRWRGGHTYYADSVKGRFTISRDNAKNTVYLQMNSLKPEDTAVYFCARRVDYISSKYGYWGQGTQVTVSS | high polyreactivity |
| QVQLVESGGGLVQAGGSLRLSCAASGRTFGWYAMGWYRQAPGKERELVAAINNSGDITYYADSVKGRFTISRDNAKNTVYLQMNRLKPEDTAVYYCAKDNGRAYFGPSPYDYWGQGTQVTVSS | low polyreactivity |
| QVQLVESGGGLVQAGGSLRLSCAASGSTLPTNAMGWYRQAPGKEREFVAAISDNGGSTYYADSVKGRFTISRDNAKNTVYLQMNSLKPEDTAVYYCAADWDESYSYRRYGHYDYWGQGTQVTVSS | low polyreactivity |
| QVQLEESGGAFVQAGGSLRLSCAASGFIFVPYSMGWYREAPGKEREFVAAITASGGNTYYADSVKGRFSISRDNAKNTVYLQMNSVKPEDTAVYYCAADISGSLESLDYWGQGTQVTGSS | low polyreactivity |
| QVQLVESGGGLVQAGGSLRLSCAASGRTFLWNAMGWYRQAPGKERELVAAISISGGNTNYADSVKGRFTISRDNAKNTVYLQINSLKPEDTAVYYCNADPRAEPGDWSYEMDYWGQGTQVTVSS | low polyreactivity |
| QVQLVESGGGLVQAGGSLRLSCAASGLIFPGYAMGWYRPAPGKERELVAAISGSGGSTYYADSVKGRFTISRDNAKNTVYLQMNSLKPEDTAVYYCSTSGPQYYSRNFDYWGQGTQVTVSS | low polyreactivity |
| KVQLVESGGGLVQAGGSLRISCAASGSNFGRYAMGWYRQAPGKERELVAAISARGGSTYYADSVKGRFTISRDNAKNTVYLQMNSLKPEDTAFYYCNVLVRYSDQSSDSWGQGTQVTVSS | high polyreactivity |
| QVQLVESGGGLVHAGGSLRLSCAASGGTFGHYTMGWYRQAPGKERELVAAISGSGGTTYYADSVKGRFTISRDNAKNTVYLQMNSLKPEDTAVYYCAAYSGAYRKWLYDYWGQGTQVTVSS | high polyreactivity |
| QVQLVESGGGLVQAGGSLRLSCAASGRTFHDNGMGGYRQAPGKERELVAAISWRGGSTNYADSVKGRFTISRDNAKNTVYLQMNSLKPEETAVYFCNRVPRKFGKLDYWGQGTQVTVSS | low polyreactivity |
| QVQLVESGGGLVQAGGSLRLSCAASGRIFSRYAMGWYRQAPGKERELVAAISRSGGSTYYADSVKGRFTISRDNAKNTVYLQMNSLKPEDTAVYYCAARNVFSYPPGSYYYWGQGTQVTVSS | high polyreactivity |
| QVQLVESGGGLVQAGGSLRLSCAASGFIFRHYAMGWYRQAPGKERELVAGINTSGGSTHYADSVKGRFTISRDNAKNTVYLQMNSLKPEDTAVYYCAADVYRYYAGSRYYYWGQGSQVTVSS | low polyreactivity |
| QVQLVESGGGLVQAVGRLRLSCAASGSNFQYYAMGWYRQAPGKERELVAAISSSGTGTSYADSVKGRFTISRDNAKNTVYLQMNSLKPEDTGVYYCAADYRDYPDSAYYYWGQGTQVTVSS | low polyreactivity |
| QVQLEESGGGLVQAGGSLRLSCAASGSIFIANAMGWYRQAPGKERELVAVINWGDGSTYADSVKGRFTISRDNAKNTVYLQMNSLKPEDTAVYYCNAPDEVNDVRYDYWGQGTQVTVSS | low polyreactivity |
| QVQLVESGGGLVQAGGSIRLSCSASGNIFSDNAMGWYRQAPGKERELGAAITSGGSTNYADSVNGRFTISRDNAKNTVYLQMNSLKPEDTAVYYCAADRGFYPSLWDYDYWGQGTQVTVSS | low polyreactivity |
| QVQLVESVGGLVQAGGSLRLSCAASGITFRYYAMGWYRQAPGKERELVADINRGSDTNYADSVKGRFTISRDNAKNTVYLQMNSLKPEDTAVYYCAARSFRSRFRLYIVEFGGYDYWGQGTQVTVSS | low polyreactivity |
| QVQLVESGGGLVQAGGSLRLSCAASGFTFDIYAMGWYRQAPGKERELVATISRSGGTTYYADSVKGRFTISRDNAKNTVYLQMNSLKPEDTAVYYCNAGRYYIGGYWGQGTQVTVSS | high polyreactivity |
| QVQLVESGGGLVQAGGSLRLSCAASGFTLRGNAMGWYRQAPGKERELVAAISTGGSTYYADSVKGRFTISRDNAKNTVYLQMNSLKPEDTAVYYCARRGWFHYRYYYWGQGTQVTVSS | high polyreactivity |
| QVQLVESGGGLVQAGGSLRLSCAASGIIFSAYAMGCYRQAPGKESELVAAISSTGGSTYYADSVKGRFTISRDNAKNTVYLQMNSLKPEDTADYYCATAFTPSKLSRMGYWGQGTQVTVSS | high polyreactivity |
| QVQLVESGGGLVQAGGSLRLSCAASGSIFFYNAMGWYRQAPGKERELVAAISRGGSTYYADSVKGRFTISRDNAKNTVYLQMNSLKPEDTAVYYCAVQRRRNSNVLFDYWGQGTQVTVSS | high polyreactivity |
| QVQLVESGGGLLQAGGSLLLSCAASGITFYDNAMGWYRQAPGKERELVAGISYDGDSTYADSVKGRFTISRDNAKNTVYLQMNSLKPEDTAVYYCAALGPYEWLWAGDYWGQGTQVTVSS | low polyreactivity |

| Sequence | polyreactivity (PSR sort gate) |
| --- | --- |
| QVQLVESGGGLVQAGGSLRLSCAASGRIFRWYAMGWYRQAPGKERELVATISSTGGSTYYADSVKGRFTLSRDNAKNTVYLQMNSLKPEDTAVYYCNAVVYGIFLYAWYDYWGQGTQVTVSS | low polyreactivity |
| QVQLVESGGGLVQAGGSLRLSCADSGRIFVHHDMGRYRQAPGKVRELVATITSGGSTYYADSVKGRFTISRDNAKNTVYLQMNSLKPEDTAVYYCAADSWDYDSRMDYWGQGTQVTVSS | low polyreactivity |
| QVQLVESGGGLVQAGGILRLSCAASGFIFAKYAMVWYRQAPGKERELVAAITSGGSTNYADSVKGRFTISRDNAKNTVYLQMNSLKPEDTAVYYCNRGFDWWYRYRHYDYWGQGTQVTVSS | low polyreactivity |
| QVQLVESGGGLVQAGGSLRLSCAASGRISDVYAMGWYRQAPGKERELVAVISWRGGTTRYADSVKGRFTISRDNAKNTVYLQMNSLKAEDTAVFYCAAKTVLWGQGTQVTVSS | high polyreactivity |
| QVQLVESGGGLVQAGGSLRLRGAASGGILVGYAMGWYRQAPGKERELVAAINYSGGSTNYADSVKGRFTISRDNAKNTVYLQMNSLKPEDTAVYYCAARSTARYGYWGQGTQVTVSS | low polyreactivity |
| QVQLVESGGGLVQAGGSRSLSCAASGRIFTVYAMGWYRQAPGKERELVAAISGRGGRTTYADSVKGRFTISRDNAKNTVFLQMNSLKPEDTAVYYCAAAYLRYVSTQYHYDYWGEGTQVTVSS | low polyreactivity |
| QDQLVESGGGLVQAGRSLRLSCAASGRTFRTYTMGWYRQAPGKERELVAAISRGGSTNYADSVKGRFTISRDNEKNTVYLQMNSLKPEDTAVYYCNAKASFCSPYDYWGQGTQVTVSS | high polyreactivity |
| QVQLVESGGGLVQAGGSLRISCAASGSTFWGYDKGWYRQAPGKERELVAAITRNGGGTYYADSVKGRFTISRDNAKNTVYLQMNSLKPEDTAVYYCASTRGAYYLYGGHKMDYWGQGSQVTVSS | high polyreactivity |
| QDQLVESGGGLVQAGVSLRLICAASGRTFYLYAIGWYRQAPGKERELVAAITWGGATTYYADSVKGRFTISRDNAKNTVYLQMNSLKPEVTAVYYCAAGGYTVWHYQYYAMDYCGQGTQVTVSS | low polyreactivity |
| QVQHVESGGGLVQAGGSLRLSCAASGSTFSQYAMGWYRQAPGKERELVAAITRGGRTYYADSVKGRFTISRDNAKNTVYLQMNSLKPEDTAVYYCAARGGYRLRYIPYVRYDYWGQGTQVTVSS | high polyreactivity |
| QVKLVESGGGLVQAGGSLRLSWAASGSILNRYAMGWYRQAPGKERELVAAITGSSGSTYYADSVKGRFTISRDNAKNTVYLQMNSLKPEDTAVYYCATAFRNGRGSYYYWGQGTQVTVSS | high polyreactivity |
| QVQLVESGGCLVQAGGSLRISCAASGLTFKGYTMGWYRQAPGKEREFVAAITGGVGSTYYADSVKGRFTISRDNAKNTVYVHMKSLQPEDTAVYYCNSVSYGYTDLYIFYTGYYYWGQGTQVTVSS | low polyreactivity |
| QVQLVESVGGLVQAAGSLRLSCAASGRIFSPYAMGWYRQAPGKESELVAAISWSGGTTYYADSVKGRFTISRDNAKNTVYLQMNSLKPEDTAVYYCAADLGYQDPLDYYWGQGTQVTVSS | high polyreactivity |
| QVQLVESGGGLVQAGGSLRLSCAASGSICSSYAMGWYRQAPGKERELVAAISGSGGSTFYADSVKGRFTISRDNAKNTVYLQMNSLKPEDTAVYYCAARYYWYGRAGKKHASYYYWGQGTQVTVSS | high polyreactivity |
| QVQLVESGGGLVQAGGSLSISCAASGRTFYAYAMGWYRQAPGTERELVASIDKSGGSTYYADSVKGRFTISRRIRRYRLFTDEQPETGRYRCLLLRCWCVVLSDFQFWGDFDYDYWGQGTQVTVSS | low polyreactivity |
| QVQLLESGGGLVQAGGILRLSCAASGIIFRYYTMGWYRPAPGKERELVAAITSGGSTNYADSVKGRFTISRDNAKHTVYLQMNRLKPEDTAVYYCRQLSVWGYDYWGQGTQVTVSS | high polyreactivity |
| QVQLVESGGGLVQAGGSLRLSCAASGSTFNINGMGWYRQAPGKERELVASITGSGGNTYYADSVKGRFTISRDNAKNTVYLQMNSLKPEDTAVYYCNTTLYTGQPGRTFDYWGQGTQVTVSS | low polyreactivity |
| QVQLVESGGGLVHAGGSLRLSCAASGRTFVYYAMGWNTQAPGKERELVAAISAGGGSTYYADSEKGRFTISRDNAKITVYFQMNSLNPEDTAVYYCAADGSPEIRDNYWGQGTQVTVSS | high polyreactivity |
| QVQLVESGVGLVQAGGSLRLSCAASGSIFHINAMGWSRQAPGKERELEADISQRGGSTYYADSVKGRFTISRDNAKNTVYLQMNSLKPEDTAVYFCAVVHVFYAVSYFSFYTYDYWGQGTQVTLSS | low polyreactivity |
| QVQLVESGGGLVQAGGSLRLSCAASGITLYRYAMGWYRLAPGKERELVADISSGGGTTYYADSVKGRFTISRDNAKNTVYLQMNSLKPEDTAVYYCAADYGFRYPLYEFWGQGTQVTVSS | low polyreactivity |
| QVQLVESGGGLVHAGGSLRLSCAASGRIFVRYAMGWYRQAPGKERELVAAINWRGSSTYYADSVKGRFTISRDNAKNTVYLQMNSLKPEDTAVYYCNTAQRYRVYRYDYWGQGTQVTVSS | high polyreactivity |
